Each block holds one molecule with its values, some of them ahead of it.
T1: CcmS-His (His-tagged CcmS from Nostoc sp. PCC 7120) (Nostoc sp. PCC 7120, UniProt A0ACD6B954 1-142, dye label on the His tag in the MST assays)
T1 chain: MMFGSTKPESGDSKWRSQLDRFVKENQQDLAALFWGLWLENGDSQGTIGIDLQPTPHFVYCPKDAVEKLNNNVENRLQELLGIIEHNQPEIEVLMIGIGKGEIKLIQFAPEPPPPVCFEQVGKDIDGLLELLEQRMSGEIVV

B1: CcmS from Nostoc sp. PCC 7120 (as used for crystallization, Native-PAGE and gel filtration; tag not told) (natural protein, UniProt A0ACD6B954 1-142, looked up)
chain: T1 chain
notes: CcmS, Nostoc sp; ccmS encodes a protein of 142 amino acids; GenBank BAB73249.1; crystal structures PDB 8ZLH (alone) and 8ZLZ (with CcmK1-C15); also called CcmS dimer; purified CcmS; source: E. coli BL21(DE3), purified (Ni2+-NTA or Strep-tag XT, gel filtration)
B2: CcmK1-His (His-tagged CcmK1 from Nostoc sp. PCC 7120) (natural protein, UniProt A0ACD6B949 1-114, looked up)
chain: MSIAVGMVETLGFPAVVEAADAMVKAARVTLVGYEKIGSGRVTVIVRGDVSEVQASVAAGVESVKRVNGGQVLSTHIIARPHENLEYVLPIRYTEDVEQFRENVNAIRPFGRRP
notes: CcmK1, carboxysome shell protein, Nostoc sp; GenBank BAB72824.1; synthesized gene in pET-22b(+); The His tag is named for the pull-down only; also called CcmK1 hexamer; source: E. coli BL21(DE3), purified (Ni2+-NTA, gel filtration)
B3: CcmK1-C15 R112A peptide (peptide)
chain: FRENVNAIRPFGARP

What was measured:
[1] = biological target: CcmS-His (His-tagged CcmS from Nostoc sp. PCC 7120) (Nostoc sp. PCC 7120); experiment: MST; His-tagged CcmS labelled with dye as target at 0.25 μM; non-labelled ligand in 2-fold steps, 16 capillaries; Monolith NT.115, 25 °C, 60% excitation power
[2] = biological target: CcmK1-ΔC12, His-tagged (C-terminus-truncated CcmK1 from Nostoc sp. PCC 7120) (Nostoc sp. PCC 7120); experiment: SEC; gel filtration chromatography of CcmK1 or CcmK1-ΔC12 alone (Supplementary Figs. S4 and S5)
[3] = biological target: B2; experiment: SEC + native gel or EMSA; molecular mass of the CcmS/CcmK1 complex by gel filtration chromatography and Native-PAGE (Supplementary Figs. S3B and S5A); conditions: both partners purified
[4] = biological target: the molecule itself; experiment: crystal structure; CcmS mixed with CcmK1-C15 at a molar ratio of 1:10, space group P41212, 1.67 Å; 0.2 M lithium sulfate, 0.1 M Tris pH 8.5, 1.26 M ammonium sulfate, 18 °C
[5] = biological target: T2, CcmS-His (His-tagged CcmS from Nostoc sp. PCC 7120) (Nostoc sp. PCC 7120, UniProt A0ACD6B954 1-142, dye label on the His tag in the MST assays); experiment: MST; His-tagged CcmS labelled with dye as target at 0.25 μM; non-labelled ligand in 2-fold steps, 16 capillaries; Monolith NT.115, 25 °C, 60% excitation power; conditions: both partners purified
T2 construct: CcmS, Nostoc sp; ccmS encodes a protein of 142 amino acids; GenBank BAB73249.1; synthesized gene in pET-22b(+); also called CcmS dimer; source: E. coli BL21(DE3), purified (Ni2+-NTA, gel filtration)

[6] = biological target: the molecule itself; experiment: SEC; gel filtration chromatography of CcmK1 or CcmK1-ΔC12 alone (Supplementary Figs. S4 and S5)
[7] = biological target: T1, CcmS-His (His-tagged CcmS from Nostoc …); experiment: MST

- Kd [1]: 41.5 µM
Molecule: CcmK1-C12 (12-amino acid C-terminal peptide of CcmK1)

- stoichiometry N [2]: 6
Molecule: CcmK1-ΔC12, His-tagged (C-terminus-truncated CcmK1 from Nostoc sp. PCC 7120) (domain or fragment)

Molecule: B1
- stoichiometry N [3]: 2 CcmS dimers per CcmK1 hexamer
- stoichiometry N [4]: 2

Molecule: B2
- Kd [5]: 34.5 µM
- stoichiometry N [6]: 6

Molecule: B3
- Kd [7]: 101 µM

Source: publication PMC11635287, “Molecular interactions of the chaperone CcmS and carboxysome shell protein CcmK1 that mediate β-carboxysome assembly” (Plant Physiology, 2024)
